Measurements taken from article PMC2745981.

Molecular target: GFP-tagged GluR1 (ΔL2–3) (UniProt P19490)
Test: co-IP

Chain of UniProt P19490 (P19490 19-907, stated change not applied): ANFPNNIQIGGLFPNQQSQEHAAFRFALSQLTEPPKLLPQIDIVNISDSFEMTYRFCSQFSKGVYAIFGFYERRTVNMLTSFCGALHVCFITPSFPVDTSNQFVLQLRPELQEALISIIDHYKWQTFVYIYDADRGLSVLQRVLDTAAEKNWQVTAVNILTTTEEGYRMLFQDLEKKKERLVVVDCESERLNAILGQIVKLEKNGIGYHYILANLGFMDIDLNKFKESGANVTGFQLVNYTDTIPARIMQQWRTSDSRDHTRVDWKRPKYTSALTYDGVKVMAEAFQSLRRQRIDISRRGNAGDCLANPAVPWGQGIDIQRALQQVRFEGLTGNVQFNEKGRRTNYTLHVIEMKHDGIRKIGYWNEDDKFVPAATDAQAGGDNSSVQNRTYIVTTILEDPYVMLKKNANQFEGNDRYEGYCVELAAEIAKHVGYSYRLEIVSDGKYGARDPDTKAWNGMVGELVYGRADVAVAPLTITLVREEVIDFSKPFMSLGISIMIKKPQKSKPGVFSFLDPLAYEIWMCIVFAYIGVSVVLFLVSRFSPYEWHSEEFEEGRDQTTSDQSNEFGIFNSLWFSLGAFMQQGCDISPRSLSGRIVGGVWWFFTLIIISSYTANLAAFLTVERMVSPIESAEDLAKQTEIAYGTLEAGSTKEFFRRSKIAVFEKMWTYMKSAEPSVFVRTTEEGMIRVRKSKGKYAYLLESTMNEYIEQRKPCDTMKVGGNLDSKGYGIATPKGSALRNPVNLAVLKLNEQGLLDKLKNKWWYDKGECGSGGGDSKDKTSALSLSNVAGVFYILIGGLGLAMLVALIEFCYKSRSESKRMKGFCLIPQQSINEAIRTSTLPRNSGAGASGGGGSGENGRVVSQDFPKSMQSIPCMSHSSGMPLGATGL

interaction, percent of control (wild-type GluR1): 78 % of control
Substance: HA-tagged p62 (from UniProt Q13501 1-440) (natural protein)
